In this experiment the target is neutral avidin (UniProt P02701). Kind of experiment: dynamic light scattering; each protein alone peaks near 10 nm.

A value given as a limit tells only on which side of the number the result lay.

Chain of neutral avidin (P02701 25-152): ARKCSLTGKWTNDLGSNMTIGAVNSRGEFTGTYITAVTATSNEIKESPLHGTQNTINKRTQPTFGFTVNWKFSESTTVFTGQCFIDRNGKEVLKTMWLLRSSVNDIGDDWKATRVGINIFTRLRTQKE

For “Nhead recombinant protein (AtaA59-325-GCN4pII-His)”, the particle size at the peak of the mixture (DLS) is greater than 1000 nm.

The values above are taken from US20220259268A1.
